Key:
[1] = target: CD8 on human CD8+ cells (PBMC) (human); assay: capture of unlabelled PBMC on a pipette tip of Strep-Tactin-agarose loaded with 1.5 ug anti-CD8 Fab-TST; flow cytometry with CD8-PE and CD3-APC; 7,6% before selection [continued]
[2] = target: CD8 on human CD8+ cells (PBMC) (human); assay: capture of PBMC pre-incubated with 1.5 ug anti-CD8 Fab-TST / multimerized soluble Strep-Tactin on Biotin-agarose; flow cytometry with CD8-PE and CD3-APC
[3] = target: CD8 on human CD8+ cells (PBMC) (human); assay: capture of unlabelled PBMC on a pipette tip of Strep-Tactin-agarose loaded with 1.5 ug anti-CD8 Fab-TST, elution with D-biotin; flow cytometry with CD8-PE and CD3-APC; 7,6% before selection [continued]
[4] = target: CD8 on human CD8+ cells (PBMC) (human); assay: capture of PBMC pre-incubated with 1.5 ug anti-CD8 Fab-TST / multimerized soluble Strep-Tactin on Biotin-agarose, elution with D-biotin; flow cytometry with CD8-PE and CD3-APC [continued]

Sequence of CD8 on human CD8+ cells (PBMC) (human) (P01732 22-235): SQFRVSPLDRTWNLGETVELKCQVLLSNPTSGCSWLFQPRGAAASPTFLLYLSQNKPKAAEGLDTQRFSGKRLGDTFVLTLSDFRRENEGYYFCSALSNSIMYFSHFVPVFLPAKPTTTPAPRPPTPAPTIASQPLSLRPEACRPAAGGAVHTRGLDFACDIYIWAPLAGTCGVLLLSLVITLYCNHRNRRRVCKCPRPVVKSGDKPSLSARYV

Substance: anti-CD8 Fab-fragment carrying the Twin-Strep-Tag at the C-terminus of the heavy chain (catalogue number 6-8003, IBA GmbH)
- Q1-UL, % CD8 PE-positive cells in the wash through fraction [1]: 2.4%
- Q1-UL, % CD8 PE-positive cells in the wash through fraction [2]: 0.9%
- Q1-UL, % CD8 PE-positive cells in the positive (biotin-eluted) fraction [3]: 58.7%
- Q1-UL, % CD8 PE-positive cells in the positive (biotin-eluted) fraction [4]: 72.4%
